Data taken from US7326541 (TARGANTA THERAPEUTICS, dated 2008).
Where no end group is shown, it is not given here.

T1: GST/STAAU_R9-561-599 fusion protein from pGEX-6PK_STAAU_R9-561-599 (Staphylococcus aureus)
T1 construct: not shown: N-terminal GST tag encoded by pGEX-6P1 (Pharmacia Amersham Biotech); PreScission protease cleavage site, HMK phosphorylation site and cloning-site residues of pGEX-6PK
T1 chain: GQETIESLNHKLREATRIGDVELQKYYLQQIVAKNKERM

T2: STAAU_R9-35 (amino acids 35 to 599 of SEQ ID NO: 2) in pGADT7, Gal4 activation domain fusion (yeast; Staphylococcus aureus, UniProt Q5HFJ8 35-599)
T2 construct: Yeast two-hybrid construct
T2 sequence: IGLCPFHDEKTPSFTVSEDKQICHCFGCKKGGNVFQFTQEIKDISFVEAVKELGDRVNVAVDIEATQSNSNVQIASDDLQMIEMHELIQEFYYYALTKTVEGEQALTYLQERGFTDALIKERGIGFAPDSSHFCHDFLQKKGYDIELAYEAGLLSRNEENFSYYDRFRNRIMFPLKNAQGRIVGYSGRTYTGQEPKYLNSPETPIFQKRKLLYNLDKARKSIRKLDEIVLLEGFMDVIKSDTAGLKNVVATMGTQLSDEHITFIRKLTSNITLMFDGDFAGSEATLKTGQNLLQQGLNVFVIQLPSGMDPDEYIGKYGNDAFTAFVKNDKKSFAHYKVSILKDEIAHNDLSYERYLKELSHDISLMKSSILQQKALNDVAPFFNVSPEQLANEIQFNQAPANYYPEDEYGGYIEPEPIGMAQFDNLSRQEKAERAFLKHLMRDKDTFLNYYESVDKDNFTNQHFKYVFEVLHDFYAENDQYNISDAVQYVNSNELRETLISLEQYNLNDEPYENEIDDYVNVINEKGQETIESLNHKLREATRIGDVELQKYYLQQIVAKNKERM

T3: GST/96ORF78 fusion protein from pGEX-6PK 96ORF078 (Staphylococcus aureus bacteriophage 96)
T3 construct: immobilized on nitrocellulose after SDS-PAGE, denatured and renatured; also called GST/960RF78; not shown: N-terminal GST tag encoded by pGEX-6P1 (Pharmacia Amersham Biotech); PreScission protease cleavage site and heart muscle kinase (HMK) phosphorylation site of pGEX-6PK (encoded by oligonucle)
T3 chain: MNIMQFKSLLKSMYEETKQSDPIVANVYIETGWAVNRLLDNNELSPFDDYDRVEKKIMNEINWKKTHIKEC

B1: 96 ORF 78 fused to the yeast Gal4 activation domain (pGADT7) (other)
chain: T3 chain
B2: GST-cleaved 96 ORF 78 polypeptide (from pGEX-6PK 96ORF078) (other)
chain: T3 chain
modifications: labelled with [^32P] at the heart muscle kinase phosphate acceptor site when used as probe
notes: also called [^32P]-96 ORF 78; purified 96 ORF 78 protein; not shown: vector residues left after PreScission cleavage, with the HMK phosphorylation site of pGEX-6PK
B3: Lamin C control of the yeast two-hybrid system (pGBKLaminC) (other)
chain: MKLLSSIEQACDICRLKKLKCSKEKPKCAKCLKNNWECRYSPKTKRSPLTRAHLTEVESRLERLEQLFLLIFPREDLDMILKMDSLQDIKALLTGLFVQDNVNKDAVTDRLASVETDMPLTLRQHRISATSSSEESSNKGQRQLTVSSEEVVSREVSGIKAAYEAELGDARKTLDSVAKERARLQLELSKVREEFKELKARNTKKEGDLIAAQARLKDLEALLNSKEAALSTALSEKRTLEGELHDLRGQVAKLEAALGEAKKQLQDEMLRRVDAENRLQTMKEELDFQKNIYSEELRETKRRHETRLVEID
notes: also called pGBKT7LaminC
B4: 96 ORF 78 fused to the carboxyl terminus of the yeast Gal4 DNA binding domain (pGBK 96ORF78) (other)
chain: MKLLSSIEQACDICRLKKLKCSKEKPKCAKCLKNNWECRYSPKTKRSPLTRAHLTEVESRLERLEQLFLLIFPREDLDMILKMDSLQDIKALLTGLFVQDNVNKDAVTDRLASVETDMPLTLRQHRISATSSSEESSNKGQRQLTVSMNIMQFKSLLKSMYEETKQSDPIVANVYIETGWAVNRLLDNNELSPFDDYDRVEKKIMNEINWKKTHIKEC
B5: GST-cleaved STAAU_R9-561-599 (peptide)
chain: T1 chain
modifications: not fully specified; also: labelled with [32P] at the HMK phosphate acceptor site when used as probe
notes: not shown: vector residues left after PreScission cleavage, with the HMK phosphorylation site of pGEX-6PK

Tests used:
[1] = biological target: B3; test: yeast two-hybrid, growth on THAL minus medium
[2] = biological target: STAAU_R9-35 (amino acids 35 to 599 of SEQ ID NO: 2) in pGBKT7, Gal4 DNA binding domain fusion (yeast; Staphylococcus aureus, UniProt P04386 1-147); test: cell-based or functional assay
[3] = biological target: T1, GST/STAAU_R9-561-599 fusion protein …; test: affinity blotting (Far western), 32P-labelled probe on renatured blotted protein
[4] = biological target: T4, GST (glutathione-S-transferase), negative control (UniProt P08515 1-218 = GST); test: as above
T4 construct: also called purified GST protein

[5] = biological target: B5; test: as above
[6] = biological target: T2, STAAU_R9-35 (amino acids 35 to 599 of …); test: yeast two-hybrid, growth on THAL minus medium
[7] = biological target: T2, STAAU_R9-35 (amino acids 35 to 599 of …); test: cell-based or functional assay
[8] = biological target: T3, GST/96ORF78 fusion protein from …; test: affinity blotting (Far western), 32P-labelled probe on renatured blotted protein
[9] = biological target: B2; test: as above
[10] = biological target: B4; test: yeast two-hybrid, growth on THAL minus medium

T4 sequence (P08515 whole entry): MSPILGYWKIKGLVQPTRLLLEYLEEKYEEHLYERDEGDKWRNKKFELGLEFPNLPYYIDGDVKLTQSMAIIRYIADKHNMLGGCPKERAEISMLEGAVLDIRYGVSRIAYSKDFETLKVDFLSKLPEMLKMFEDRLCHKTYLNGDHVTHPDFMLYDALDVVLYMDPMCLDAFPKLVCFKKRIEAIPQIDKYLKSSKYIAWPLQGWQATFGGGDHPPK

Question: Which results are given for B1?
Answer: binding result [1]: no binding; β-galactosidase activity [2]: 10 fold

Question: Does B2 bind [3]?
Answer: binds

Question: Does B2 bind [4]?
Answer: no binding

Question: Does B2 bind [5]?
Answer: binds

Question: Does B3 bind [6]?
Answer: no binding

Question: How did the β-galactosidase activity [7] turn out when B4 was run?
Answer: 10 fold

Question: Does B5 bind [4]?
Answer: no binding

Question: Does B5 bind [8]?
Answer: binds

Question: Does B5 bind [9]?
Answer: binds

Question: Does GQETIESLNHKLREATRIGDVELQKYYLQQIVAKNKERM (other, Yeast two-hybrid construct) bind [10]?
Answer: binds
